Starred links: 1 amine or outer side, 2 acyl side, 3 side chain; linkers in the order of their positions; H or OH if unused. Non-standard residues stand in square brackets, D forms with d. Groups on a side chain read outwards from the residue. No end group written: not given here. *: point of attachment. C15 diacid = O=C(O)CCCCCCCCCCCCCC(=O)*; γGlu = O=C(O)[C@H](CCC(=O)[*:2])N[*:1]; NMeY = CN[C@@H](Cc1ccc(O)cc1)C(=O)O; Palmitoyl = CCCCCCCCCCCCCCCC(=O)*; AEEA = NCCOCCOCC(=O)O; Aib = CC(C)(N)C(=O)O
T1: full-length human GIPR with an N-terminal FLAG tag, overexpressed on HEK-293T cells (human, UniProt P48546 22-466)
T1 sequence (looked up): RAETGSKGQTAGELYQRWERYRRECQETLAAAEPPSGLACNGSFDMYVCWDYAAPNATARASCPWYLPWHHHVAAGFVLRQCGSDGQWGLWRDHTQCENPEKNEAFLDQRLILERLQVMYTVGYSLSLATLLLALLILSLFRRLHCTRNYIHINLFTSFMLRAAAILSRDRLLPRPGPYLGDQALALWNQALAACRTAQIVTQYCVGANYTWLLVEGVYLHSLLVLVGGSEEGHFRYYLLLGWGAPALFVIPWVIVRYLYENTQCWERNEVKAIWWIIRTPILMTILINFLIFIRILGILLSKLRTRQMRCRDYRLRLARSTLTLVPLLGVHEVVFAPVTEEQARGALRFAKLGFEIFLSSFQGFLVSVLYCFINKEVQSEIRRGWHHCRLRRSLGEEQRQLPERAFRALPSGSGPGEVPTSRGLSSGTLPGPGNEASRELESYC

T2: full-length human GIPR with an N-terminal FLAG tag (human, UniProt P48546 22-466)
T2 sequence (looked up): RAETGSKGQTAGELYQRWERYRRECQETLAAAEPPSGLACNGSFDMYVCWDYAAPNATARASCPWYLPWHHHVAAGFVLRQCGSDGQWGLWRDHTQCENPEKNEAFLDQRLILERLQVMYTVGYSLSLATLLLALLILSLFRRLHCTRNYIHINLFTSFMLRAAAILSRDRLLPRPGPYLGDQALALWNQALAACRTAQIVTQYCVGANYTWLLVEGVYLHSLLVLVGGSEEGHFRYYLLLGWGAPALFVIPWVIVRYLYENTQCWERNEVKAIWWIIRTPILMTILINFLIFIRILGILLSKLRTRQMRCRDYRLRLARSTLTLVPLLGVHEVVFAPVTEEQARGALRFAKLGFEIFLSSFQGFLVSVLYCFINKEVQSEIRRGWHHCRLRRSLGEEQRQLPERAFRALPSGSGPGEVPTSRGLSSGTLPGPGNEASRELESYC


Legend:
[1] = molecular target: T1, full-length human GIPR with an …; assay: cell-based or functional assay
[2] = molecular target: full-length human GLP-1R with an N-terminal FLAG tag, overexpressed on HEK-293T cells (human, UniProt P43220 24-463); assay: cell-based or functional assay
human plasma proteins = assay: plasma protein binding, ultracentrifugation of spiked plasma, LC-MS/MS
[3] = molecular target: full-length human GLP-1R with an N-terminal FLAG tag (human, UniProt P43220 24-463); assay: cell-based or functional assay
[4] = molecular target: T2, full-length human GIPR with an …; assay: cell-based or functional assay

Binder	Human GIPR cAMP, HEK293T EC50 [1]	Human GLP1R cAMP HEK293T EC50 [2]	Human PPB (Fu,plasma), fraction unbound (fraction unbound) (human plasma proteins)	Human GLP1R cAMP HEK293T EC50 [3]	Human GIPR cAMP, HEK293T EC50 [4]
[NMeY][Aib]EGTFISDYSI[Aib]LDR[Aib]AQ[Aib]K([AEEA-AEEA-γGlu-γGlu-Palmitoyl])FVNWLLAQRG-OH (not fully specified (N-terminus)) [Compound 203]	0.003 nM	2.63 nM	–	–	–
Me-YGEGTFISDYSIALDR[Aib]AQ[Aib]K([2OEG-γGlu-γGlu-C15 diacid])FVNWLLAQKG-OH [Compound 206]	0.0013 nM	145 nM	–	–	–
[NMeY][Aib]EGTFISDYSIAK([AEEA-AEEA-γGlu-γGlu-C15 diacid])DR[Aib]AQ[Aib]NFVNWLLAQK-NH2 (N-terminus assumed; SMILES CC[C@H](C)[C@H](NC(=O)[C@H](CO)NC(=O)[C@H](Cc1ccc(O)cc1)NC(=O)[C@H](CC(=O)O)NC(=O)[C@H](CO)NC(=O)[C@@H](NC(=O)[C@H](Cc1ccccc1)NC(=O)[C@@H](NC(=O)CNC(=O)[C@H](CCC(=O)O)NC(=O)C(C)(C)NC(=O)[C@H](Cc1ccc(O)cc1)NC)[C@@H](C)O)[C@@H](C)CC)C(=O)N[C@@H](C)C(=O)N[C@@H](CCCCNC(=O)COCCOCCNC(=O)COCCOCCNC(=O)CC[C@H](NC(=O)CC[C@H](NC(=O)CCCCCCCCCCCCCC(=O)O)C(=O)O)C(=O)O)C(=O)N[C@@H](CC(=O)O)C(=O)N[C@@H](CCCNC(=N)N)C(=O)NC(C)(C)C(=O)N[C@@H](C)C(=O)N[C@@H](CCC(N)=O)C(=O)NC(C)(C)C(=O)N[C@@H](CC(N)=O)C(=O)N[C@@H](Cc1ccccc1)C(=O)N[C@H](C(=O)N[C@@H](CC(N)=O)C(=O)N[C@@H](Cc1c[nH]c2ccccc12)C(=O)N[C@@H](CC(C)C)C(=O)N[C@@H](CC(C)C)C(=O)N[C@@H](C)C(=O)N[C@@H](CCC(N)=O)C(=O)N[C@@H](CCCCN)C(N)=O)C(C)C) [Compound 22]	–	–	0.0413	–	–
Me-Y[Aib]EGTFISDYSIALDR[Aib]AQ[Aib]K([2OEG-γGlu-γGlu-C15 diacid])FVNWLLAQRG-OH [Compound 211]	0.0002 nM	174 nM	–	–	–
Me-Y[Aib]EGTFISDYSIALDR[Aib]AQ[Aib]K([2OEG-γGlu-C15 diacid])FVNWLLAQKG-OH [Compound 213]	0.0003 nM	17 nM	–	–	–
[NMeY][Aib]EGTFISDYSIALDR[Aib]AQ[Aib]K([AEEA-γGlu-γGlu-γGlu-C15 diacid])FVNWLLAQK-NH2 (N-terminus assumed; SMILES CC[C@H](C)[C@H](NC(=O)[C@H](CO)NC(=O)[C@H](Cc1ccc(O)cc1)NC(=O)[C@H](CC(=O)O)NC(=O)[C@H](CO)NC(=O)[C@@H](NC(=O)[C@H](Cc1ccccc1)NC(=O)[C@@H](NC(=O)CNC(=O)[C@H](CCC(=O)O)NC(=O)C(C)(C)NC(=O)[C@H](Cc1ccc(O)cc1)NC)[C@@H](C)O)[C@@H](C)CC)C(=O)N[C@@H](C)C(=O)N[C@@H](CC(C)C)C(=O)N[C@@H](CC(=O)O)C(=O)N[C@@H](CCCNC(=N)N)C(=O)NC(C)(C)C(=O)N[C@@H](C)C(=O)N[C@@H](CCC(N)=O)C(=O)NC(C)(C)C(=O)N[C@@H](CCCCNC(=O)COCCOCCNC(=O)CC[C@H](NC(=O)CC[C@H](NC(=O)CC[C@H](NC(=O)CCCCCCCCCCCCCC(=O)O)C(=O)O)C(=O)O)C(=O)O)C(=O)N[C@@H](Cc1ccccc1)C(=O)N[C@H](C(=O)N[C@@H](CC(N)=O)C(=O)N[C@@H](Cc1c[nH]c2ccccc12)C(=O)N[C@@H](CC(C)C)C(=O)N[C@@H](CC(C)C)C(=O)N[C@@H](C)C(=O)N[C@@H](CCC(N)=O)C(=O)N[C@@H](CCCCN)C(N)=O)C(C)C) [Compound 24]	–	–	0.0512	–	–
Me-Y[Aib]EGTFISDYSIALDR[Aib]AQ[Aib]K([2OEG-γGlu-γGlu-C15 diacid])FVNWLLAQKG-NH2 [Compound 205]	0.0002 nM	13.5 nM	–	–	–
Me-Y[dA]EGTFISDYSIALDR[Aib]AQ[Aib]K([2OEG-γGlu-γGlu-C15 diacid])FVNWLLAQKG-OH [Compound 216]	0.0003 nM	34.7 nM	–	–	–
[NMeY][Aib]EGTFISDYSIALDR[Aib]AQ[Aib]K([AEEA-γGlu-γGlu-γGlu-C15 diacid])FVNWLL[Aib]QK-NH2 (N-terminus assumed; SMILES CC[C@H](C)[C@H](NC(=O)[C@H](CO)NC(=O)[C@H](Cc1ccc(O)cc1)NC(=O)[C@H](CC(=O)O)NC(=O)[C@H](CO)NC(=O)[C@@H](NC(=O)[C@H](Cc1ccccc1)NC(=O)[C@@H](NC(=O)CNC(=O)[C@H](CCC(=O)O)NC(=O)C(C)(C)NC(=O)[C@H](Cc1ccc(O)cc1)NC)[C@@H](C)O)[C@@H](C)CC)C(=O)N[C@@H](C)C(=O)N[C@@H](CC(C)C)C(=O)N[C@@H](CC(=O)O)C(=O)N[C@@H](CCCNC(=N)N)C(=O)NC(C)(C)C(=O)N[C@@H](C)C(=O)N[C@@H](CCC(N)=O)C(=O)NC(C)(C)C(=O)N[C@@H](CCCCNC(=O)COCCOCCNC(=O)CC[C@H](NC(=O)CC[C@H](NC(=O)CC[C@H](NC(=O)CCCCCCCCCCCCCC(=O)O)C(=O)O)C(=O)O)C(=O)O)C(=O)N[C@@H](Cc1ccccc1)C(=O)N[C@H](C(=O)N[C@@H](CC(N)=O)C(=O)N[C@@H](Cc1c[nH]c2ccccc12)C(=O)N[C@@H](CC(C)C)C(=O)N[C@@H](CC(C)C)C(=O)NC(C)(C)C(=O)N[C@@H](CCC(N)=O)C(=O)N[C@@H](CCCCN)C(N)=O)C(C)C) [Compound 29]	–	–	0.018	47.1 nM	0.0001 nM
Me-Y[Aib]EGTFISDYSIALDR[Aib]AQ[Aib]K([2OEG-γGlu-γGlu-C15 diacid])FVNWLLAQKPSSGAPPPS-NH2 [Compound 209]	0.0003 nM	479 nM	–	–	–
[NMeY][Aib]EGTFISDYSIAK([Gly-Gly-Glu-Glu-Glu-C15 diacid])DR[Aib]AQ[Aib]NFVNWLLAQK-NH2 (not fully specified) [Compound 30]	–	–	0.0407	–	–
Me-Y[Aib]EGTFISDYSIALDR[Aib]AQ[Aib]K([2OEG-C15 diacid])FVNWLLAQKG-OH [Compound 218]	0.0006 nM	89.1 nM	–	–	–
Me-YAEGTFISDYSIALDR[Aib]AQ[Aib]K([2OEG-γGlu-γGlu-C15 diacid])FVNWLLAQKG-OH [Compound 217]	0.0002 nM	4.9 nM	–	–	–
Me-Y[Aib]EGTFISDYSIALDR[Aib]AQ[Aib]K([2OEG-γGlu-γGlu-C15 diacid])FVNWLLAQK-NH2 [Compound 210]	0.0003 nM	129 nM	–	–	–
Me-Y[Aib]EGTFISDYSIALDR[Aib]AQ[Aib]K([G5gEgE-C15 diacid])FVNWLLAQKG-OH [Compound 215]	0.0002 nM	45.7 nM	–	–	–
Me-Y[Aib]EGTFISDYSIALDR[Aib]AQ[Aib]KFVNWLLAQKG-OH (not fully specified (residues 1, 21)) [Compound 212]	0.0002 nM	66.1 nM	–	–	–

— US20220227830A1, “QD DOSING OF GIP RECEPTOR AGONIST PEPTIDE COMPOUNDS AND USES THEREOF” (Takeda Pharmaceutical Company Limited, priority 2020, published 2022)
